For two substances, stoichiometry N results are on record in publication PMC8132391.

Experiment [1] concerns the target Bn86287 (104-607 amino acids), COG4337 protein of Bigelowiella natans (Bigelowiella natans). The experiment can be described thus: SEC-MALS; Superdex 200 increase 10/300 GL, 293 K, 20 mM Tris-HCl pH 8.0, 100 mM NaCl; Bn86287 3.7 mg/ml and all2909 4.9 mg/ml, 30 ul injected.
The target in experiment [2] is all2909, COG4337 protein of Anabaena sp. PCC 7120, without N-terminal leader (Anabaena sp. PCC 7120) (UniProt Q8YT18). The experiment is described as above.

Usually stoichiometry N stands for a count of units in the complex or per binding partner. For “Bn86287 (104-607 amino acids), COG4337 protein of Bigelowiella natans (enzyme)”, the stoichiometry N in experiment [1] is 2. As for “all2909, COG4337 protein of Anabaena sp. PCC 7120, without N-terminal leader (from UniProt Q8YT18 31-205) (enzyme)”, the stoichiometry N in experiment [2] was found to be 4.
